Patent US20240270821A1, “GIP/GLP1/GCG TRI-RECEPTOR AGONISTS AND USES THEREOF” (priority 2023, published 2024)
Residue numbers refer to the chain shown, from its start. Starred links: 1 amine or outer side, 2 acyl side, 3 side chain; linkers in the order of their positions; H or OH if unused. Non-standard residues stand in square brackets, D forms with d. Groups on a side chain read outwards from the residue. No end group written: not given here. *: point of attachment. C20 diacid = O=C(O)CCCCCCCCCCCCCCCCCCC(=O)*; γGlu = O=C(O)[C@H](CCC(=O)[*:2])N[*:1]; αMeL = CC(C)C[C@](C)(N)C(=O)O; AEEA = NCCOCCOCC(=O)O; Aib = CC(C)(N)C(=O)O

T1: human GIP receptor (human) (UniProt P48546)
T1 sequence (looked up): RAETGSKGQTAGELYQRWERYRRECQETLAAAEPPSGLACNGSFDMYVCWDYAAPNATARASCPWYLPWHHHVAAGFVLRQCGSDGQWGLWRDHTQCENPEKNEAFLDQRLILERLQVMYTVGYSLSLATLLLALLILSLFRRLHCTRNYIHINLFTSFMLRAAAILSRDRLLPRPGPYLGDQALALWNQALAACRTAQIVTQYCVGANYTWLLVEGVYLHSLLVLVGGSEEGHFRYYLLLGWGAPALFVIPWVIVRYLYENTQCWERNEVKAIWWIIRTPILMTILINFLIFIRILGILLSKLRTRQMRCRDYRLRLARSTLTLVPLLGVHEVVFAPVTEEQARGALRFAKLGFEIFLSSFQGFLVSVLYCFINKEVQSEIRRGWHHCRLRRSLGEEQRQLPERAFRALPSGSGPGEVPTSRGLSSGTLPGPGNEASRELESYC

B1: Example 93 (peptide)
chain: YXQGTFTSDFSXXLDKKAQXAFIEYLLAGGPSSGAPPPEGS
modifications: synthetic construct; SITE 2: note = 2-Aminoisobutyric Acid; SITE 12: note = L-ornithine; SITE 13: note = alpha-methyl-leucine; SITE 17: note = Lysine is chemically modified through conjugation of the epsilon-amino group of the Lysine side chain with (2-[2-(2-Amino-ethoxy)-ethoxy]-acetyl)-(gamma-Glu)
B2: Example 99 (peptide)
chain: B1 chain with S41E
modifications: synthetic construct; SITE 2: note = 2-Aminoisobutyric Acid; SITE 12: note = L-ornithine; SITE 13: note = alpha-methyl-leucine; SITE 17: note = Lysine is chemically modified through conjugation of the epsilon-amino group of the Lysine side chain with (2-[2-(2-Amino-ethoxy)-ethoxy]-acetyl)-(gamma-Glu)
B3: Example 16 (peptide)
chain: B1 chain with X12K, E39G
modifications: Aib, αMeL; acylated Lys; C-terminal amide; synthetic construct; SITE 2: note = 2-Aminoisobutyric Acid; SITE 13: note = alpha-methyl-leucine; SITE 17: note = Lysine is chemically modified through conjugation of the epsilon-amino group of the Lysine side chain with (2-[2-(2-Amino-ethoxy)-ethoxy]-acetyl)-(gamma-Glu)-CO-(CH2) 18-CO2H; SITE 20: n
B4: Example 15 (peptide)
chain: B1 chain with X12K, E39G, S41E
modifications: acylated Lys, Aib, αMeL, C-terminal amide; synthetic construct; SITE 2: note = 2-Aminoisobutyric Acid; SITE 13: note = alpha-methyl-leucine; SITE 17: note = Lysine is chemically modified through conjugation of the epsilon-amino group of the Lysine side chain with (2-[2-(2-Amino-ethoxy)-ethoxy]-acetyl)-(gamma-Glu)-CO-(CH2) 18-CO2H; SITE 20: n
B5: Example 97 (peptide)
chain: B1 chain with A35E, E39S, S41E
modifications: synthetic construct; SITE 2: note = 2-Aminoisobutyric Acid; SITE 12: note = L-ornithine; SITE 13: note = alpha-methyl-leucine; SITE 17: note = Lysine is chemically modified through conjugation of the epsilon-amino group of the Lysine side chain with (2-[2-(2-Amino-ethoxy)-ethoxy]-acetyl)-(gamma-Glu)
B6: Example 12 (peptide)
chain: B1 chain with X12K, E39S, S41G
modifications: Aib, αMeL; acylated Lys; C-terminal amide; synthetic construct; SITE 2: note = 2-Aminoisobutyric Acid; SITE 13: note = alpha-methyl-leucine; SITE 17: note = Lysine is chemically modified through conjugation of the epsilon-amino group of the Lysine side chain with (2-[2-(2-Amino-ethoxy)-ethoxy]-acetyl)-(gamma-Glu)-CO-(CH2) 18-CO2H; SITE 20: n
B7: Example 21 (peptide)
chain: B1 chain with X12K, Y25W, A35E, E39S, S41E
modifications: Aib, αMeL; acylated Lys; C-term amide; synthetic construct; SITE 2: note = 2-Aminoisobutyric Acid; SITE 13: note = alpha-methyl-leucine; SITE 17: note = Lysine is chemically modified through conjugation of the epsilon-amino group of the Lysine side chain with (2-[2-(2-Amino-ethoxy)-ethoxy]-acetyl)-(gamma-Glu)-CO-(CH2) 18-CO2H; SITE 20: n
B8: Example 8 (peptide)
chain: B1 chain with X12K, A35E, E39S
modifications: non-natural residues, acylation, C-terminal amide; synthetic construct; SITE 2: note = 2-Aminoisobutyric Acid; SITE 13: note = alpha-methyl-leucine; SITE 17: note = Lysine is chemically modified through conjugation of the epsilon-amino group of the Lysine side chain with (2-[2-(2-Amino-ethoxy)-ethoxy]-acetyl)-(gamma-Glu)-CO-(CH2) 18-CO2H; SITE 20: n
B9: Example 10 (peptide)
chain: B1 chain with X12K, E39S, G40E, S41G
modifications: Aib, αMeL; acylated lysine; C-terminal amide; synthetic construct; SITE 2: note = 2-Aminoisobutyric Acid; SITE 13: note = alpha-methyl-leucine; SITE 17: note = Lysine is chemically modified through conjugation of the epsilon-amino group of the Lysine side chain with (2-[2-(2-Amino-ethoxy)-ethoxy]-acetyl)-(gamma-Glu)-CO-(CH2) 18-CO2H; SITE 20: n
B10: Example 17 (peptide)
chain: B1 chain with X12K, A28E, E39G, G40E, S41G
modifications: Aib, αMeL, acylated Lys, C-terminal amide; synthetic construct; SITE 2: note = 2-Aminoisobutyric Acid; SITE 13: note = alpha-methyl-leucine; SITE 17: note = Lysine is chemically modified through conjugation of the epsilon-amino group of the Lysine side chain with (2-[2-(2-Amino-ethoxy)-ethoxy]-acetyl)2-(gamma-Glu)-CO-(CH2 )18-CO2H; SITE 20:
B11: Example 11 (peptide)
chain: B1 chain with X12K, E39S, S41E
modifications: Aib, αMeL; acylated Lys; C-terminal amide; synthetic construct; SITE 2: note = 2-Aminoisobutyric Acid; SITE 13: note = alpha-methyl-leucine; SITE 17: note = Lysine is chemically modified through conjugation of the epsilon-amino group of the Lysine side chain with (2-[2-(2-Amino-ethoxy)-ethoxy]-acetyl)-(gamma-Glu)-CO-(CH2) 18-CO2H; SITE 20: n
B12: Example 94 (peptide)
chain: B1 chain with A35E, E39S
modifications: synthetic construct; SITE 2: note = 2-Aminoisobutyric Acid; SITE 12: note = L-ornithine; SITE 13: note = alpha-methyl-leucine; SITE 17: note = Lysine is chemically modified through conjugation of the epsilon-amino group of the Lysine side chain with (2-[2-(2-Amino-ethoxy)-ethoxy]-acetyl)-(gamma-Glu)
B13: Example 7 (peptide)
chain: B1 chain with X12K, A35E, E39S, G40S, S41G
modifications: Aib, αMeL, acylated K, C-terminal amide; synthetic construct; SITE 2: note = 2-Aminoisobutyric Acid; SITE 13: note = alpha-methyl-leucine; SITE 17: note = Lysine is chemically modified through conjugation of the epsilon-amino group of the Lysine side chain with (2-[2-(2-Amino-ethoxy)-ethoxy]-acetyl)-(gamma-Glu)-CO-(CH2) 18-CO2H; SITE 20: n
B14: Example 13 (peptide)
chain: B1 chain with X12K, E39S, G40S, S41G
modifications: Aib, αMeL, acylated K, C-terminal amide; synthetic construct; SITE 2: note = 2-Aminoisobutyric Acid; SITE 13: note = alpha-methyl-leucine; SITE 17: note = Lysine is chemically modified through conjugation of the epsilon-amino group of the Lysine side chain with (2-[2-(2-Amino-ethoxy)-ethoxy]-acetyl)-(gamma-Glu)-CO-(CH2) 18-CO2H; SITE 20: n
B15: Example 18 (peptide)
chain: B1 chain with X12K, A28E, E39G
modifications: Aib, αMeL; acylated Lys; C-terminal amide; synthetic construct; SITE 2: note = 2-Aminoisobutyric Acid; SITE 13: note = alpha-methyl-leucine; SITE 17: note = Lysine is chemically modified through conjugation of the epsilon-amino group of the Lysine side chain with (2-[2-(2-Amino-ethoxy)-ethoxy]-acetyl)-(gamma-Glu)-CO-(CH2) 18-CO2H; SITE 20: n
B16: Example 98 (peptide)
chain: B1 chain with A35E, S41E
modifications: synthetic construct; SITE 2: note = 2-Aminoisobutyric Acid; SITE 12: note = L-ornithine; SITE 13: note = alpha-methyl-leucine; SITE 17: note = Lysine is chemically modified through conjugation of the epsilon-amino group of the Lysine side chain with (2-[2-(2-Amino-ethoxy)-ethoxy]-acetyl)-(gamma-Glu)
B17: Example 19 (peptide)
chain: Y[Aib]QGTFTSDFSK[αMeL]LDKK([AEEA-γGlu-C20 diacid])AQQAFIEYLLA[Aib]GPSSGEPPPSEG-NH2

What follows are binders tested against human glucagon receptor (human) (UniProt P47871) (assay: cell-based or functional assay).
human glucagon receptor (human), sequence (P47871 26-477): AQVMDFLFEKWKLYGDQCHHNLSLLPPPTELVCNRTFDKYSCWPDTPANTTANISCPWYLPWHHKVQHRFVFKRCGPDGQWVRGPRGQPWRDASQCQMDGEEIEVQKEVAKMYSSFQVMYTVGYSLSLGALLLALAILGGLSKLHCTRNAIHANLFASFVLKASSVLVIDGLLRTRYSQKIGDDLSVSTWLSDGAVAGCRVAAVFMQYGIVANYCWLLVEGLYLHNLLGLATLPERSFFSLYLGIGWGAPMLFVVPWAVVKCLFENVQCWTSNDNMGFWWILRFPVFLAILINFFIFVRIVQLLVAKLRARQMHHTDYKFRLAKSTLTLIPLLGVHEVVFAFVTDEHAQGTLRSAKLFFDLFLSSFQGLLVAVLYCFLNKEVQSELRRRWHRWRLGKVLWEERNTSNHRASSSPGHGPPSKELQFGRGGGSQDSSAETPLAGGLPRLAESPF

In order of falling Relative cAMP EC50:
1. B11  0.0125 µM
2. B7  0.0124 µM
3. B6  0.0122 µM
4. B4  0.0111 µM
5. B3  0.00884 µM
6. B10  0.00833 µM
7. B12  0.00816 µM
8. B9  0.00762 µM
9. B14  0.00719 µM
10. B1  0.00716 µM
11. B16  0.00691 µM
12. B5  0.00673 µM
13. B8  0.00665 µM
14. B2  0.00609 µM
15. B13  0.00505 µM
16. B15  0.0027 µM
17. B17  0.00235 µM

In order of falling cAMP Rel EC50, nM (in the presence of 1% HSA):
1. B1  1390 nM
2. B5  1270 nM
3. B12  1220 nM
4. B2  1130 nM
5. B16  867 nM

In order of rising cAMP Rel EC50 (in the presence of 1% HSA):
1. B17  1.01 µM
2. B13  1.21 µM
3. B15  1.21 µM
4. B6  1.49 µM
5. B7  1.51 µM
6. B8  1.56 µM
7. B9  1.64 µM
8. B3  1.66 µM
9. B14  1.67 µM
10. B11  1.7 µM
11. B4  1.98 µM
12. B10  2.04 µM

What follows are binders tested against T1, human GIP receptor (human) (assay: cell-based or functional assay).

In order of falling Relative cAMP EC50:
1. B15  0.000337 µM
2. B10  0.000317 µM
3. B11  0.000233 µM
4. B8  0.000231 µM
5. B17  0.000228 µM
6. B9  0.000226 µM
7. B7  0.000218 µM
8. B3  0.000217 µM
9. B13  0.000203 µM
10. B4  0.000201 µM
11. B14  0.000196 µM
12. B16  0.000179 µM
13. B5  0.000176 µM
14. B2  0.000174 µM
15. B6  0.00017 µM
16. B1  0.000162 µM
17. B12  0.000154 µM

In order of rising cAMP Rel EC50, nM (in the presence of 1% HSA):
1. B12  21.4 nM
2. B5  23.9 nM
3. B1  27.9 nM
4. B2  29.5 nM
5. B16  33.8 nM

In order of falling cAMP Rel EC50 (in the presence of 1% HSA):
1. B10  0.0917 µM
2. B17  0.0662 µM
3. B15  0.0596 µM
4. B13  0.0506 µM
5. B9  0.043 µM
6. B11  0.0408 µM
7. B8  0.0394 µM
8. B4  0.0363 µM
9. B3  0.0359 µM
10. B6  0.0302 µM
11. B14  0.0292 µM
12. B7  0.0291 µM

What follows are binders tested against hGLP-1R (Homo sapiens, UniProt P43220) (assay: cell-based or functional assay).
hGLP-1R, sequence (P43220 24-463): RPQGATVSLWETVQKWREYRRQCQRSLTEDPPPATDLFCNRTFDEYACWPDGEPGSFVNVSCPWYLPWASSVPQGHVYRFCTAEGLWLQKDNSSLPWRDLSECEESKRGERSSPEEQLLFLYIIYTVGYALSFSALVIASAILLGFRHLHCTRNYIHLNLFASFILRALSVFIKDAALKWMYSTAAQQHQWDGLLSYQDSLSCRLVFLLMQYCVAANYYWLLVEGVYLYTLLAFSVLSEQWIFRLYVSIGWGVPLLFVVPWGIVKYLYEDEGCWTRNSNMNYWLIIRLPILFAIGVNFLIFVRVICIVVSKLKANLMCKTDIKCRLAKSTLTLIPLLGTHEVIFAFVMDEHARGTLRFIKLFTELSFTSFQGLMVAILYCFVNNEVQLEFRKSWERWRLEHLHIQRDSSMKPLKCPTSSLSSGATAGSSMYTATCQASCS

In order of falling Relative cAMP EC50:
1. B16  0.00435 µM
2. B17  0.00396 µM
3. B2  0.00354 µM
4. B5  0.00323 µM
5. B10  0.00296 µM
6. B7  0.0027 µM
7. B1  0.00263 µM
8. B12  0.00263 µM
9. B15  0.00231 µM
10. B8  0.00211 µM
11. B13  0.00211 µM
12. B11  0.00207 µM
13. B9  0.00185 µM
14. B14  0.00178 µM
15. B4  0.00177 µM
16. B3  0.00154 µM
17. B6  0.00146 µM

In order of rising cAMP Rel EC50, nM (in the presence of 1% HSA):
1. B1  397 nM
2. B12  480 nM
3. B2  588 nM
4. B5  605 nM
5. B16  660 nM

In order of falling cAMP Rel EC50 (in the presence of 1% HSA):
1. B17  1.31 µM
2. B8  0.603 µM
3. B15  0.561 µM
4. B10  0.543 µM
5. B13  0.494 µM
6. B9  0.375 µM
7. B11  0.337 µM
8. B7  0.324 µM
9. B14  0.282 µM
10. B3  0.281 µM
11. B4  0.276 µM
12. B6  0.216 µM

Each binder was assayed against human GLP1-R (SNAP-GLP-1R expressed in HEK293 cells) (human) (UniProt P43220) (assay: cell-based or functional assay).
human GLP1-R (SNAP-GLP-1R expressed in HEK293 cells) (human), sequence (P43220 24-463): as above

In order of falling GLP1R Internalization EC50:
1. B15  0.0918 µM
2. B7  0.0876 µM
3. B9  0.0792 µM
4. B4  0.079 µM
5. B11  0.0751 µM
6. B10  0.0662 µM
7. B8  0.0632 µM
8. B2  0.0569 µM
9. B16  0.056 µM
10. B14  0.0533 µM
11. B13  0.0526 µM
12. B17  0.0524 µM
13. B5  0.0519 µM
14. B6  0.0485 µM
15. B3  0.0378 µM
16. B12  0.0371 µM
17. B1  0.0304 µM

In order of falling Internalization % TOP:
1. B13  76.3%
2. B6  75.3%
3. B4  74.9%
4. B14  74.7%
5. B3  74.6%
6. B15  74.1%
7. B8  74%
8. B11  73.8%
9. B17  72.6%
10. B7  72.5%
11. B10  72.2%
12. B9  71.9%
13. B1  50.8%
14. B5  50.7%
15. B16  49.3%
16. B12  47.2%
17. B2  46.1%
